These results are taken from patent US20170066831A1 (Janssen / Centocor, published 2017).

For orientation: Kd means a measure of binding affinity in units of concentration. Read a low Kd as higher affinity. As usually defined, the koff is the first-order rate constant of dissociation. Lower therefore signals a long-lived complex. What is called kon is a measure of how fast the partners come together. A high value points to fast association.

Where a chain is given by its changes, count along the chain named.

Assay in all cases: SPR, ProteOn XPR36, 25 C; mAb captured on anti-Fc surface, ST2L-D1D2 (HH-ST2L) variant injected; 1:1 model
The target in one test is T1, E61K.
T1 construct: also called HH-ST2L (ST2L-D1D2) variant E61K
T1 receptor fragment (Domains I and II): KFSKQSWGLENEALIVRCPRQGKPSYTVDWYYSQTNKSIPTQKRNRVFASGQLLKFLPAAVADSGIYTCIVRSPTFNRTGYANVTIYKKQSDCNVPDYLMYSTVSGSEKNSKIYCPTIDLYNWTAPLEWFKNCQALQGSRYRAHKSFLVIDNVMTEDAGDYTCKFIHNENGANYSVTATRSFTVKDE
As to the method: (§1) Binding studies were performed using the ProteOn XPR36 Protein Interaction Array system (Bio-Rad) (Bravman T, et al. Anal Biochem 358:281-288, 2006). […] Individual anti-ST2L mAb was then captured by flowing (1 μg/mL) antibody solution prepared in PBS containing 0.5% Nonidet P-40 and 0.5% Na-deoxycholate). The signal in the surfaces reached ˜250 resonance units (RU, 1 RU=1 pg protein/mm²) in the anti-Fc-coated surfaces, confirming that these antibodies specifically capture anti-ST2L mAbs. After 90° rotation of the fluid system, wild type of ST2L-D1D2 or variant proteins (0.5 mg/mL in PBS containing 0.5% Nonidet P-40 and 0.5% Na-deoxycholate) was injected in the parallel flow channels. All of these assays were performed at 25° C. The ST2L-D1D2-dependent signals on the surfaces were obtained by double referencing, subtracting the response observed on surfaces immobilizing the antibodies alone, and the signal observed injecting the vehicle alone (which allows correction for binding-independent responses). The resulting sensorgrams were fitted by the simplest 1:1 interaction model (ProteOn analysis software), to obtain the corresponding association and dissociation rate constants (kₐ and kd).

The next test deals with T2, 69GQL71-->RDR.
T2 construct: also called HH-ST2L (ST2L-D1D2) variant with 69GQL71 changed to RDR
T2 receptor fragment (Domains I and II): T1 receptor fragment (Domains I and II) with K43E, G51R, Q52D, L53R
As to the method: as §1

Another test deals with T3, A80E.
T3 construct: also called HH-ST2L (ST2L-D1D2) variant A80E
T3 receptor fragment (Domains I and II): T1 receptor fragment (Domains I and II) with K43E, A62E
As to the method: as §1

B1: STLM208 (antibody, V domains shown)
VH: EVQLLESGGGLVQPGGSLRLSCAASGFTFSIYDMIWVRQAPGKGLEWVSSIRGEGGGTYYADSVKGRFTISRDNSKNTLYLQMNSLRAEDTAVYYCARDPWSTEGSFFVLDYWGQGTLVTVSS
VL: EIVLTQSPATLSLSPGERATLSCRASQSVDDDLAWYQQKPGQAPRLLIYDASNRATGIPARFSGSGSGTDFTLTISSLEPEDFAVYYCQQYITAPLTFGQGTKVEIK
notes: frameworks VH3-23 / Vk-L6
In the test with E61K, B1 showed an equilibrium dissociation constant (Kd) of 8.1 pM, a koff of 0.000126 s⁻¹ and an on-rate constant (kon) of 1.55e+07 M⁻¹ s⁻¹. For the same molecule, in the test with 69GQL71-->RDR, the affinity, expressed as Kd, was 9.6 pM; the dissociation rate constant (koff) stood at 9.27e-05 s⁻¹; the association rate constant (kon) stood at 1.02e+07 M⁻¹ s⁻¹. In the test with A80E, the dissociation constant (Kd) came to 11 pM, the off-rate (koff) was found to be 0.000127 s⁻¹ and the kon was found to be 1.15e+07 M⁻¹ s⁻¹.
